{"source": "patent US11079398B2", "about": "“Method for measurement of peptidic degradation products of a proteolytic cascade in blood samples” (ATTOQUANT DIAGNOSTICS GMBH, priority 2012, dated 2021)", "molecules": {"B1": {"name": "APN: recombinant aminopeptidase N, purchased from R&D Systems (protein, UniProt P15144 2-967, looked up)", "Aminopeptidase N": "AKGFYISKSLGILGILLGVAAVCTIIALSVVYSQEKNKNANSSPVASTTPSASATTNPASATTLDQSKAWNRYRLPNTLKPDSYRVTLRPYLTPNDRGLYVFKGSSTVRFTCKEATDVIIIHSKKLNYTLSQGHRVVLRGVGGSQPPDIDKTELVEPTEYLVVHLKGSLVKDSQYEMDSEFEGELADDLAGFYRSEYMEGNVRKVVATTQMQAADARKSFPCFDEPAMKAEFNITLIHPKDLTALSNMLPKGPSTPLPEDPNWNVTEFHTTPKMSTYLLAFIVSEFDYVEKQASNGVLIRIWARPSAIAAGHGDYALNVTGPILNFFAGHYDTPYPLPKSDQIGLPDFNAGAMENWGLVTYRENSLLFDPLSSSSSNKERVVTVIAHELAHQWFGNLVTIEWWNDLWLNEGFASYVEYLGADYAEPTWNLKDLMVLNDVYRVMAVDALASSHPLSTPASEINTPAQISELFDAISYSKGASVLRMLSSFLSEDVFKQGLASYLHTFAYQNTIYLNLWDHLQEAVNNRSIQLPTTVRDIMNRWTLQMGFPVITVDTSTGTLSQEHFLLDPDSNVTRPSEFNYVWIVPITSIRDGRQQQDYWLIDVRAQNDLFSTSGNEWVLLNLNVTGYYRVNYDEENWRKIQTQLQRDHSAIPVINRAQIINDAFNLASAHKVPVTLALNNTLFLIEERQYMPWEAALSSLSYFKLMFDRSEVYGPMKNYLKKQVTPLFIHFRNNTNNWREIPENLMDQYSEVNAISTACSNGVPECEEMVSGLFKQWMENPNNNPIHPNLRSTVYCNAIAQGGEEEWDFAWEQFRNATLVNEADKLRAALACSKELWILNRYLSYTLNPDLIRKQDATSTIISITNNVIGQGLVWDFVQSNWKKLFNDYGGGSFSFSNLIQAVTRRFSTEYELQQLEQFKKDNEETGFGSGTRALEQALEKTKANIKWVKENKEVVLQWFTENSK"}, "B2": {"name": "ACE: recombinant RAS enzyme Angiotensin Converting Enzyme, purchased from R&D Systems (protein, UniProt P12821 30-1306, looked up)", "Angiotensin-converting enzyme": "LDPGLQPGNFSADEAGAQLFAQSYNSSAEQVLFQSVAASWAHDTNITAENARRQEEAALLSQEFAEAWGQKAKELYEPIWQNFTDPQLRRIIGAVRTLGSANLPLAKRQQYNALLSNMSRIYSTAKVCLPNKTATCWSLDPDLTNILASSRSYAMLLFAWEGWHNAAGIPLKPLYEDFTALSNEAYKQDGFTDTGAYWRSWYNSPTFEDDLEHLYQQLEPLYLNLHAFVRRALHRRYGDRYINLRGPIPAHLLGDMWAQSWENIYDMVVPFPDKPNLDVTSTMLQQGWNATHMFRVAEEFFTSLELSPMPPEFWEGSMLEKPADGREVVCHASAWDFYNRKDFRIKQCTRVTMDQLSTVHHEMGHIQYYLQYKDLPVSLRRGANPGFHEAIGDVLALSVSTPEHLHKIGLLDRVTNDTESDINYLLKMALEKIAFLPFGYLVDQWRWGVFSGRTPPSRYNFDWWYLRTKYQGICPPVTRNETHFDAGAKFHVPNVTPYIRYFVSFVLQFQFHEALCKEAGYEGPLHQCDIYRSTKAGAKLRKVLQAGSSRPWQEVLKDMVGLDALDAQPLLKYFQPVTQWLQEQNQQNGEVLGWPEYQWHPPLPDNYPEGIDLVTDEAEASKFVEEYDRTSQVVWNEYAEANWNYNTNITTETSKILLQKNMQIANHTLKYGTQARKFDVNQLQNTTIKRIIKKVQDLERAALPAQELEEYNKILLDMETTYSVATVCHPNGSCLQLEPDLTNVMATSRKYEDLLWAWEGWRDKAGRAILQFYPKYVELINQAARLNGYVDAGDSWRSMYETPSLEQDLERLFQELQPLYLNLHAYVRRALHRHYGAQHINLEGPIPAHLLGNMWAQTWSNIYDLVVPFPSAPSMDTTEAMLKQGWTPRRMFKEADDFFTSLGLLPVPPEFWNKSMLEKPTDGREVVCHASAWDFYNGKDFRIKQCTTVNLEDLVVAHHEMGHIQYFMQYKDLPVALREGANPGFHEAIGDVLALSVSTPKHLHSLNLLSSEGGSDEHDINFLMKMALDKIAFIPFSYLVDQWRWRVFDGSITKENYNQEWWSLRLKYQGLCPPVPRTQGDFDPGAKFHIPSSVPYIRYFVSFIIQFQFHEALCQAAGHTGPLHKCDIYQSKEAGQRLATAMKLGFSRPWPEAMQLITGQPNMSASAMLSYFKPLLDWLRTENELHGEKLGWPQYNWTPNSARSEGPLPDSGRVSFLGLDLDAQQARVGQWLLLFLGIALLVATLGLSQRLFSIRHRSLHRHSHGPQFGSEVELRHS"}, "B3": {"name": "NEP: recombinant neutral endopeptidase (neprilysin), purchased from R&D Systems (protein, UniProt P08473 2-750, looked up)", "Neprilysin": "GKSESQMDITDINTPKPKKKQRWTPLEISLSVLVLLLTIIAVTMIALYATYDDGICKSSDCIKSAARLIQNMDATTEPCTDFFKYACGGWLKRNVIPETSSRYGNFDILRDELEVVLKDVLQEPKTEDIVAVQKAKALYRSCINESAIDSRGGEPLLKLLPDIYGWPVATENWEQKYGASWTAEKAIAQLNSKYGKKVLINLFVGTDDKNSVNHVIHIDQPRLGLPSRDYYECTGIYKEACTAYVDFMISVARLIRQEERLPIDENQLALEMNKVMELEKEIANATAKPEDRNDPMLLYNKMTLAQIQNNFSLEINGKPFSWLNFTNEIMSTVNISITNEEDVVVYAPEYLTKLKPILTKYSARDLQNLMSWRFIMDLVSSLSRTYKESRNAFRKALYGTTSETATWRRCANYVNGNMENAVGRLYVEAAFAGESKHVVEDLIAQIREVFIQTLDDLTWMDAETKKRAEEKALAIKERIGYPDDIVSNDNKLNNEYLELNYKEDEYFENIIQNLKFSQSKQLKKLREKVDKDEWISGAAVVNAFYSSGRNQIVFPAGILQPPFFSAQQSNSLNYGGIGMVIGHEITHGFDDNGRNFNKDGDLVDWWTQQSASNFKEQSQCMVYQYGNFSWDLAGGQHLNGINTLGENIADNGGLGQAYRAYQNYIKKNGEEKLLPGLDLNHKQLFFLNFAQVWCGTYRPEYAVNSIKTDVHSPGNFRIIGTLQNSAEFSEAFHCRKNSYMNPEKKCRVW"}}, "test_system": "renin-angiotensin system (RAS)", "test": "RSSE-Fingerprinting: blood incubated at 37° C. with added agents, LC-MS/MS quantification of angiotensin peptides", "format": "biochemical, human", "details": "for shift of RSSE-Fingerprint: 5 μg/ml enzyme added prior to incubation", "experimental": "Blood samples were collected and anti-coagulated with standardised heparin tubes (BD). As indicated in FIGS. 3A-3C, plasma separation has been done for the respective samples before the incubation to reach steady state equilibrium.\nFollowing plasma separation by centrifugation at 3000 rcf for 10 minutes at 4° C., […] of plasma was applied onto an activated and equilibrated SEP-PAK™ C18 cartridge. Sample matrix components were removed by washing three times with 1 ml water. Bound analytes were then eluted with 1 ml of methanol. Eluates were evaporated to dryness and reconstituted in 10% acetonitril/90% water supplemented with 0.1% formic acid followed by subjection to LC-MS/MS analysis.\nA vacuum manifold has been used for sample processing. • 1. Activation: EtOH abs. • 2. Equilibration: 2×1 ml H2O • 3. Loading: 0.2-1 ml stabilised plasma • 4. Washing: 3×1 ml H2O • 5. Elution: 1 ml MeOH Quantification and Signal Integration\nMRM chromatograms were integrated using Analyst 1.5.1 software provided by Applied Biosystems. The threshold for the quantification limit was set at a signal-to-noise ratio of 10. Integration signals not reaching this ratio were set to zero. Analyte signals were related to internal standard signals and concentration was calculated from initially spiked amounts of internal standards.", "data": [{"molecule": "B1", "values": [{"measurement": "shift of RSSE-Fingerprint", "value": "shifted as expected"}]}, {"molecule": "B2", "values": [{"measurement": "shift of RSSE-Fingerprint", "value": "shifted as expected"}, {"measurement": "steady state equilibrium Ang 1-10 concentration, addition of ACE compared to ACE2", "setting": "5 μg/ml enzyme, FIG. 2B1", "value": "lower"}]}, {"molecule": "B3", "values": [{"measurement": "shift of RSSE-Fingerprint", "value": "shifted as expected"}]}]}
